From article PMC8024323, “Drosophila TNFRs Grindelwald and Wengen bind Eiger with different affinities and promote distinct cellular functions” (Nature Communications, 2021) come the findings set out here.

First the molecules themselves.
B1: Grnd^30–97 (extracellular domain of Grindelwald) [Drosophila melanogaster] / Egr^146–409 (extracellular portion of Eiger, His6-tagged) [Drosophila melanogaster] (parent complex)
chain 1: GESRDCHGTICHPVNEFCYVATERCHPCIEVCNNQTHNYDAFLCAKECSAYKTFEPLKAEMLDIQNTQ
chain 2: GADYEDYTDMLNKLNNAHTGTTPTSETTAEGEGETDSASSASNDDNVFDDFTSYNAHKKKQERKSRSIADVRNEEQNIQGNHTELQEKSSNEATSKESPAPLHHRRRMHSRHRHLLVRKARSEDSRPAAHFHLSSRRRHQGSMGYHGDMYIGNDNERNSYQGHFQTRDGVLTVTNTGLYYVYAQICYNNSHDQNGFIVFQGDTPFLQCLNTVPTNMPHKVHTCHTSGLIHLERNERIHLKDIHNDRNAVLREGNNRSYFGIFKV

In this test the parent is B1. The experiment in a line: ITC; parent: 30.8 nM.
For chain 1 H37A, the dissociation constant (Kd) came to 4.8 µM. Regarding chain 1 E23A, the Kd was 1.3 µM. On to chain 1 N38A, for which the Kd worked out at 4.5 µM.
